4 molecules from PMC4072690 (PLoS ONE, 2014) can be followed below.

Experiment [1] deals with T1, Francisella tularensis SchuS4 recombinant GroEL with N-terminal His tag (Francisella tularensis subsp. …, UniProt Q5NEE1).
T1 construct: source: E. coli BL21(DE3)pLysS, pET14b, IPTG induced, in BugBuster lysate; not shown: His6, N-terminal, kept
Kind of experiment: ELISA. The note with it: one partner purified. Background: ELISA stands for enzyme-linked immunosorbent assay.

The target in experiment [2] is Francisella tularensis LVS recombinant GroEL with N-terminal His tag (Francisella tularensis subsp. …, UniProt P94798, strain). Kind of experiment: ELISA. The note with it: one partner purified.
For experiment [3], the target named is T2, GroEL of Francisella tularensis SchuS4, endogenous (Francisella tularensis subsp. …, UniProt Q5NEE1).
T2 construct: source: endogenous, SchuS4 NP40 lysate
Kind of experiment: ELISA. The note with it: one partner purified.

For experiment [4], the target named is T3, purified FtGroEL used in the DXMS experiments (Francisella tularensis, strain not …, UniProt Q5NEE1).
T3 construct: copies: 14
Kind of experiment: HDX-MS. The note with it: both partners purified.

Experiment [5] has as its target T4, Escherichia coli GroEL, endogenous (Escherichia coli TG1 (K-12) and BL21, UniProt P0A6F5).
T4 construct: also called EcGroEL
Kind of experiment: Western blot. The note with it: one partner purified. Background: A western blot detects proteins with antibodies after separation by electrophoresis.

The target of experiment [6] is GroEL of Francisella tularensis LVS, endogenous (Francisella tularensis subsp. …, UniProt P94798, strain). Kind of experiment: competition Western blot. The note with it: one partner purified.
The target of experiment [7] is T4, Escherichia coli GroEL, endogenous. Kind of experiment: ELISA. The note with it: one partner purified.
The target in experiment [8] is T1, Francisella tularensis SchuS4 …. Kind of experiment: Western blot. The note with it: one partner purified.

B1: Ab53 mouse monoclonal antibody (IgG2a,κ) specific for FtGroEL (antibody, V domains shown)
VH: EVKLLESGGGLVQPGGSMKLSCVASGFTFSIFWMNWVRQSPEKGLEWVAEVRLKSNNYATHYAESVKGRFTISRDDSKSGVYLQMNNLRAEDTGIYYCTRGYYGSNYGEYWGQGTTLTVSS
VL: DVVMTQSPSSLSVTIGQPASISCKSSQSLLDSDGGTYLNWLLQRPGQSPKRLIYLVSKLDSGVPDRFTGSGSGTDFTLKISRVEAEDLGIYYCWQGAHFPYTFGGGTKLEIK
notes: also called Ab53 IgG
For B1, the binding result in experiment [1], in experiment [2], in experiment [3], in experiment [4], in experiment [5] and in experiment [6] was “binds” throughout.

B2: Ab53 Fab (Fab, V domains shown)
VH: EVKLLESGGGLVQPGGSMKLSCVASGFTFSIFWMNWVRQSPEKGLEWVAEVRLKSNNYATHYAESVKGRFTISRDDSKSGVYLQMNNLRAEDTGIYYCTRGYYGSNYGEYWGQGTTLTVSS
VL: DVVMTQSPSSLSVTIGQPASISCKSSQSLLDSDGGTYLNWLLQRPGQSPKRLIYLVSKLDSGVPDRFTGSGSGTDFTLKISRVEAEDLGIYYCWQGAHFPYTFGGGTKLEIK
notes: also called Fab fragment of Ab53; source: cleavage of purified Ab53 IgG with the Pierce Fab Preparation Kit
Take B2: the binding result in experiment [4] is recorded as “binds”.

B3: Ab64 mouse monoclonal antibody (IgG2a,κ) specific for FtGroEL (antibody, V domains shown)
VH: EVQLLESGPELVRLGASVKVSCKASGYSFTDYNMYWVKQSHGKSLEWIGYIDPYNGDASYNQKFKGKATLTVDKSSSTAFMHLNSLTSEDSAVYYCARTGYYYGRSYAMDYWGQGTSVTVSS
VL: DIVMTQAAPSVPVTPGESVSISCRSSKSLLHSNGNTYLYWFLQRPGQSPQLLIYRMSNLASGVPDRFSGSGSGTAFTLRISKVEAEDVGVYYCMQHLEYPYTFGGGTKLDVK
notes: also called Ab64 IgG
Regarding B3, the binding result in experiment [7] is listed as “no binding”; in experiment [2], “binds”; in experiment [3], “binds”; in experiment [4], “binds”; in experiment [8] it was “binds”; in experiment [6], “binds”.

B4: Ab64 Fab (Fab, V domains shown)
VH: EVQLLESGPELVRLGASVKVSCKASGYSFTDYNMYWVKQSHGKSLEWIGYIDPYNGDASYNQKFKGKATLTVDKSSSTAFMHLNSLTSEDSAVYYCARTGYYYGRSYAMDYWGQGTSVTVSS
VL: DIVMTQAAPSVPVTPGESVSISCRSSKSLLHSNGNTYLYWFLQRPGQSPQLLIYRMSNLASGVPDRFSGSGSGTAFTLRISKVEAEDVGVYYCMQHLEYPYTFGGGTKLDVK
notes: also called Fab fragment of Ab64; source: cleavage of purified Ab64 IgG with the Pierce Fab Preparation Kit
For B4, the binding result in experiment [4] is “binds”.
